Measured values taken from paper PMC8567202, “Phosphoinositide-binding activity of Smad2 is essential for its function in TGF-β signaling” (The Journal of Biological Chemistry, 2021).

Legend:
[1] = SPR membrane binding to POPC/POPS/PI(3,4)P2 vesicles; conditions: POPC/POPS/PI(3,4)P2 (77:20:3), 1 μM Smad2
Protocol: (§1) Figure 1 Membrane-binding properties of Smad2 FL protein and MH2 domain determined by SPR analysis.A, PtdInsP selectivity of Smad2-FL determined using POPC/POPS/PtdInsP (77:20:3 in mole ratio) LUVs coated on the L1 sensor chip. The protein concentration was 100 nM. PIP3 indicates PI(3,4,5)P3. B, determination of Kd for binding of Smad2 FL to different LUVs. The protein concentration was varied from 0 to 500 nM. C, PI(4,5)P2 concentration dependence of membrane binding of Smad2-FL determined using POPC/POPS/PI(4,5)P2 (77-x:20:x, x = 0–5 mol%) LUVs. The protein concentration was 100 nM. D, PtdInsP selectivity of the Smad2 MH2 domain determined using POPC/POPS/PtdInsP (77:20:3 in mole ratio) LUVs. […] RUmax values determined for different vesicles at 1 μM Smad2 were: 280 ± 20 for POPC/POPS/PI(4,5)P2 (77:20:3), 370 ± 10 for POPC/POPS/PI(3,4)P2 (77:20:3), 400 ± 15 for POPC/POPS/PI(3,4,5)P3 (or PIP3) (77:20:3), 400 ± 20 for POPC/POPS/PI(3)P (77:20:3), and 380 ± 20 for POPC/POPS (80:20). […]
(§2) All SPR measurements were performed at 23 °C in 20 mM Tris, pH 7.4, containing 0.16 M NaCl using a lipid-coated L1 chip in the BIACORE X-100 system (GE Healthcare) as described previously ([19], [38]). […] Sensorgrams were collected for both membrane association and dissociation but the only the association phases were further analyzed because the dissociation phases were often too slow for analysis. […]

[2] = SPR membrane binding to POPC/POPS/PI(3,4,5)P3 vesicles; conditions: POPC/POPS/PI(3,4,5)P3 (or PIP3) (77:20:3), 1 μM Smad2
Protocol: as §1, §2

B1: Smad2 WT: bacterially expressed full-length Smad2 wild-type (protein)
chain: MSSILPFTPPVVKRLLGWKKSAGGSGGAGGGEQNGQEEKWCEKAVKSLVKKLKKTGRLDELEKAITTQNCNTKCVTIPSTCSEIWGLSTANTVDQWDTTGLYSFSEQTRSLDGRLQVSHRKGLPHVIYCRLWRWPDLHSHHELKAIENCEYAFNLKKDEVCVNPYHYQRVETPVLPPVLVPRHTEILTELPPLDDYTHSIPENTNFPAGIEPQSNYIPETPPPGYISEDGETSDQQLNQSMDTGSPAELSPTTLSPVNHSLDLQPVTYSEPAFWCSIAYYELNQRVGETFHASQPSLTVDGFTDPSNSERFCLGLLSNVNRNATVEMTRRHIGRGVRLYYIGGEVFAECLSDSAIFVQSPNCNQRYGWHPATVCKIPPGCNLKIFNNQEFAALLAQSVNQGFEAVYQLTRMCTIRMSFVKGWGAEYRRQTVTSTPCWIELHLNGPLQWLDKVLTQMGSPSVRCSSMS
modifications: left off: His6, N-terminal, state not stated
notes: bacterially expressed full-length Smad2 wild-type
B1 showed an RUmax [1] of 370 ± 10 and an RUmax [2] of 400 ± 15.
